Test results as given in the supplement of paper PMC9170038.

Tested on: MS2 coat protein
Assay: apparent KD of MS2 coat protein; higher = weaker reporter binding
Settings: Eterna round: R107
Description: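 RNA-MaP round R107: designed RNA switches with theophylline, tryptophan, arginine or FMN aptamers are transcribed on-chip within common flanks. They are titrated with SNAP-549-labelled MS2 coat protein in RNA-MaP buffer (100 mM Tris pH 7.5, 80 mM KCl, 4 mM MgCl2), without ligand or with the indicated ligand. Median apparent KD per design.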

[1] = input ligand: theophylline 20 uM
[2] = input ligand: tryptophan 2.4 mM
[3] = input ligand: theophylline 2 mM

| Sequence | apparent KD of MS2 coat protein (input ligand: arginine 13.2 mM) [µM] | apparent KD of MS2 coat protein [1] [µM] | apparent KD of MS2 coat protein [2] [µM] | apparent KD of MS2 coat protein [3] [µM] | apparent KD of MS2 coat protein (input ligand: none) [µM] |
| --- | --- | --- | --- | --- | --- |
| ACAUGAGGAUCACCCAUGUUCCUCAUUGAUACCAGUGAAAGAAGACGCCCUUGGCAGCGAGAAGAAGAAGAAGAAGUUUUUUUUU [6.B] | 0.209 | 0.77 | 0.917 | – | – |
| ACAUGAGGAUCACCCAUGUUCCUCGCCGAUACCAGUGAAGAAGAACGCCCUUGGCAGCGGAAAGAAUAUAUUGGAGAUGAUAUAU [6.U] | 0.111 | 0.252 | 0.225 | – | – |
| ACAUGAGGAUCACCCAUGUUCCUCGCCGAUACCAGUGAAGAAUUACGCCCUUGGCAGCGGAAAGAGUAUUUUGGAGAUGAGGUAC [6.Z] | 0.0517 | 0.127 | 0.066 | – | – |
| ACAUGAGGAUCACCCAUGUUUGAUGUUCCUCGAGGACCGGUACGGCCGCCACUCGAACGAGUGGCGCGCGAGUGCGCACUCGCGC [aSa] | 0.0113 | 0.0201 | – | 0.013 | – |
| ACAUGGGUCUGAAGGAGCGCGAUAACAUGAGGAUCACCCAUGUAAAGUGGAACAUGAUAAUCGCAGGUAGGUCGCAGUAAAACCC [#26 Same State - Arginine B] | 0.0816 | 0.293 | 0.328 | 0.476 | 0.412 |
| ACAUUUAACUGAAGGAGCGUGAUAUUUACAUGAGGAUCACCCAUGUCUUUCAUGAAUAAUUCACAGGUAGGUCGCAGACUAAUGA [JR_ExcArginiB_Sub007] | 0.0968 | 0.159 | 0.129 | 0.158 | 0.116 |
| ACAUUUAACUGAAGGAGCGUGAUUUCUACAACAUGAGGAUCACCCAUGUUCAUUACUCAUUCACAGGUAGGUCGCAGACUAAUGA [JR_SSArginiB_Sub031] | 0.0209 | 0.0268 | 0.021 | 0.0235 | 0.0202 |
| ACCAUGUAAUCAGAUACCAGACAUCUUUUAAAUCAUAUUACAUGAGGAUCACCCAUGUUGGUCCCUUGGCAGCUGAAAUAUUUUU [JR_Nu_SSTheophyB_Sub026] | 0.11 | 0.212 | 0.303 | – | – |
| ACCUCACUCUCUGAUACCAGCUAACAACAUGAGGAUCACCCAUGUCAGACUUGUAUUGAUAGCCCUUGGCAGCAGAGGUAACUGC [#16 Exclusion-TheophyllineB] | 0.0139 | 0.0212 | 0.0168 | – | – |
| ACCUGCGUUUGAUAAAAUCAGACGCAGGUUCGAGGACCGGUACGGCCGCCACUCGGACAUGAGGAUCACCCAUGUUUGACAUGGG [#05 Exclusion Tryptophan A] | 0.168 | 0.301 | – | 0.746 | – |
| ACCUGUACGAAAAGUGCAGGACACGGAAUACGAGGACCGGUACGGCCGCCACUCGGAAACCUGAGGAUCACCCUGGUAAACCGUG [TrypAS 12 #AlternativeMS2 #Zipper #StaticStem] | 0.0269 | 0.0335 | 0.0233 | 0.0311 | 0.0252 |
| ACGAACGAUAGCGAUACCAGACGUACAUGAGGAUCACCCAUGUUUUGGGUAAGGUUAAUAGUCCCUUGGCAGCGCUUUAAGUUCG [#10 Exclusion-TheophyllineB] | 0.0505 | 0.0897 | 0.059 | – | – |
| ACGACAUGAGGAUCACCCAUGUGUACUGAAGGAGCGGCGGAAACGCCAGGUAGGUCGCAGUACACCUCAACCAGCGGUCCUAAGU [EAA NP+V+V2 #2] | 0.027 | 0.0784 | 0.0643 | 0.107 | 0.0641 |
| ACGCACAUGAGGAUCACCCAUGUGAACCUACGAGGACCGGUACGGCCGCCACUCGCUGUUCCUACCGGCUUAAUUGUCACUGGGU [theeternabot_sameState_MS2_Trp_A_19] | 0.0273 | 0.0544 | – | 0.049 | – |
| ACGCCCAGGUAGGCUUAAUGGGAAAUGGAAGGAGCGCUGAUGCAAGCAGGUAGGUCGCCAACGAACAUGAGGAUCACCCAUGUAA [Same State - Arginine A (Freestyle 2)] | 0.0163 | 0.0282 | 0.0207 | 0.0238 | 0.0223 |
| ACGCUGAUUGAUUACAAUCAGCGAAAAGAUACCAGCCUGGAUAUCGGCCCUUGGCAGCUUAAACCUGAGGAUCACCCUGGUAAAA [TheoAS 13 #MS2Right #BothOrNeither #AlternativeMS2] | 0.1 | 0.126 | 0.147 | 0.0729 | 0.0936 |
| ACGGAGAUGUCGGCCGCCACUGAACUCAUGUUCAACAUGAGGAUCACCCAUGUACCUUAGUUUAUCAGGACCGGGACAUAUACGA [JR_ExcTryptoB_Sub003] | 0.0797 | 0.17 | – | 0.183 | – |

| Sequence | apparent KD of MS2 coat protein (input ligand: arginine 13.2 mM) [µM] | apparent KD of MS2 coat protein [1] [µM] | apparent KD of MS2 coat protein [2] [µM] | apparent KD of MS2 coat protein [3] [µM] | apparent KD of MS2 coat protein (input ligand: none) [µM] |
| --- | --- | --- | --- | --- | --- |
| ACGGUUGGUUCGUUACCUCAUAUCUCAGAAGGAGCGGGCAGUAGUCCAGGUAGGUCGCUGGGACAUGAGGAUCACCCAUGUCUUA [Aataer] | 0.0224 | 0.139 | 0.166 | 0.211 | 0.103 |
| ACGUAAUGCAGAAGGAGCGUCUUAUUAAUACAUGAGGAUCACCCAUGUUAUAUUUAUGGUAGACAGGUAGGUCGCUGAAGUACGA [JR_SSArginiB_Sub008] | 0.00886 | 0.0173 | 0.0107 | 0.0132 | 0.0118 |
| ACGUCCGGAUUAAUCGUGGGCAUGGUCGAUACCAGUAUUUUAAUCUACCCUUGGCAGCGACAUGAGGAUCACCCAUGUGCGAUGA [XTheo A #18] | 0.0143 | 0.023 | 0.0169 | – | – |
| ACGUUGAAGUCGGCCGCCACUGAUUUCAUGUUCAACAUGAGGAUCACCCAUGUACCUUAUGUUAACAGGACCGGGACGUAUACGA [JR_SSTryptoB_Sub002] | 0.264 | 0.341 | – | 0.551 | – |
| ACGUUUUAGUCGGCCGCCACUGAUCUCAUGUUCAACAUGAGGAUCACCCAUGUACCUUUUUUUAUCAGGACCGGGACGUAAUAGA [JR_SSTryptoB_Sub005] | 0.085 | 0.328 | – | 0.359 | – |
| ACUACAAAGUAGUAUAUACGAAAGUAUAGACGAGGACCGGUACGGCCGCCACUCGGUACCGGAAACACAUGAGGAUCACCCAUGU [Ex_TrypA - 3H] | 0.017 | 0.025 | – | 0.023 | – |
| ACUAGUUGUGCAGAUACCAGGCAUGAGGAUCACCCAUGUUUGGGAUGUUCGCAUCUUCCUGUCCCUUGGCAGCUGUACAUCUAGA [Omei Theo B Exc v6] | 0.0499 | 0.167 | 0.15 | 0.0315 | 0.0485 |
| ACUCGGUGUUUGUUGCUCCGAGUGUAUGAUACCAGUCAGUUUUAUGGCCCUUGGCAGCAUAGGACAUGAGGAUCACCCAUGUGUU [#01 SameState-TheophyllineA] | 0.0329 | 0.049 | 0.0508 | 0.0338 | 0.0449 |
| ACUCUGUCGGGUGAUACCAGCCUCGGCACAUCUCGCGCCGAACAUGAGGAUCACCCAUGUGGCCCUUGGCAGCACAUGACAAAUC [Rimalearve] | 0.0641 | 0.618 | 0.512 | – | – |
| ACUUCAUGAGGUGAUACCAGCCAAUGACAUGAGGACAUGAGGAUCACCCAUGUUUAUGUAGGCCCUUGGCAGCACUGUAACAUGA [Same State Theophylline B 4] | 0.0195 | 0.0318 | 0.0197 | – | – |
| ACUUGAUACUGAAGGAGCGUCGGAUAAACUCGCACAUGAGGAUCACCCAUGUAUAUGAAUCGACAGGUAGGUCGCAGUAUCGAGU [Arg B SS t6] | 0.013 | 0.0197 | 0.0153 | 0.0156 | 0.0136 |
| ACUUUGUCGGGUGAUACCAGCCUCGGCACAUCUCGUGCCGAACAUGAGGAUCACCCAUGUGGCCCUUGGCAGCACAUGACAACUC [Quceanteri] | 0.145 | 0.637 | 0.608 | – | – |
| AGAAUACAUGUUUUAAUACGGUUUACUGAUACCAGUGUAUCUAUUCACCCUUGGCAGCAGAGACAUGAGGAUCACCCAUGUAUUA [JR_Nu_ExcTheophyA_Sub022] | 0.025 | 0.0417 | 0.0461 | – | – |
| AGAAUAUAGUCGGCCGCCACUCUACAUACAUGAGGAUCACCCAUGUUUACAUAGUGAAUAUACAUGAGGACCGGGACAUAGGCAU [JR_SSTryptoB_Sub020] | 0.0216 | 0.0261 | – | 0.0237 | – |
| AGACAUGAGGAUCACCCAUGUAGCACGGAUACCAGAUCCAGAUGUAUCCCUUGGCAGCUGUGGUACAGCGUUGCAACGCUCCUAG [Exclusion - Theophylline A (Freestyle 17)] | 0.0176 | 0.0285 | 0.0181 | – | – |
| AGACAUGAGGAUCACCCAUGUAGCAUGGAUACCAGAUCCAGAUUUAUCCCUUGGCAGCUGUGGUAAAGUGAUGGAUUGCUCCUAG [Exclusion - Theophylline A (Freestyle 7)] | 0.0381 | 0.0558 | 0.0369 | – | – |
